# Target: NLS-PpsR2-VP16 (Rhodopseudomonas palustris; H. simplex)
# Test: cell-based or functional assay
substance,measurement,value
BphP1-mCherry-TetR (from UniProt P04483 1-207),"EGFP signal, illuminated over dark-treated cells (pTRE-Tight-EGFP reporter, flow cytometry)",> 27 fold
same,Rluc8 activation with 740 nm light against 470 nm light in cultured HeLa cells,18 fold
same,"Rluc8 light-to-dark signal ratio in mouse liver after hydrodynamic transfection (pKA-207I10), 48 h",5.7 fold
same,"Rluc8 signal, 740 nm illuminated mice over mice in darkness, HeLa cells injected subcutaneously, 48 h",32 fold
same,"SEAP level, 740 nm light over darkness, after 12 h",3 fold
same,"SEAP level, 740 nm light over darkness, after 48 h (pTRE-Tight-SEAP reporter, HeLa)",40 fold
same,"SEAP reporter expression against the PhyB-PIF6 system, same reporter plasmid",2 fold
same,"decrease of SEAP production by 12 h of 636 nm light after 12 h of 740 nm light, against cells kept in darkness",2.3 fold
same,half-time of SEAP accumulation under 740 nm light,18 h
same,"rate of SEAP decrease in darkness after 636 nm illumination, against darkness alone",2 fold

# Reference: US20180346523A1
